Test results taken from patent US20260001928A1 (CORTERIA PHARMACEUTICALS, priority 2022, published 2026).
*1 amine or outer side, *2 acyl side, *3 side chain or, on linkers, in order; H or OH if unused. Where no end group is shown, it is not given here. Side-chain parts run from the residue outwards. [ ]: non-standard residue; d: D form. The star is where a group is joined. C18 diacid = O=C(O)CCCCCCCCCCCCCCCCC(=O)*; C16 diacid = O=C(O)CCCCCCCCCCCCCCC(=O)*; γGlu = O=C(O)[C@H](CCC(=O)[*:2])N[*:1]; NMeI = CC[C@H](C)[C@H](NC)C(=O)O; Isovaleryl = CC(C)CC(=O)*; Pentanoyl = CCCCC(=O)*; Aib = CC(C)(N)C(=O)O

T1: CRF1R receptor (UniProt P34998 24-415, limits assumed)
T1 sequence (looked up): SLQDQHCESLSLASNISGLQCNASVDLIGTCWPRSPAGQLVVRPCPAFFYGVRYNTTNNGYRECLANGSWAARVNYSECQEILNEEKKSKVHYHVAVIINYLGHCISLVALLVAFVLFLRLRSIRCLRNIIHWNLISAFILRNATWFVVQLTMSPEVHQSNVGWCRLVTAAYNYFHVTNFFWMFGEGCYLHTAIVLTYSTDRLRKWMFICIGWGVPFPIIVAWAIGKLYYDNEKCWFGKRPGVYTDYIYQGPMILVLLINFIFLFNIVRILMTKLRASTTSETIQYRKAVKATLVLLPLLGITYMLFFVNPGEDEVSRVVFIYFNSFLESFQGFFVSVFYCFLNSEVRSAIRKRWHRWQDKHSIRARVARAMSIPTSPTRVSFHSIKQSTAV


Tests used:
[1] = target: human corticotropin-releasing factor 2a (CRF2a receptor) (human), Q13324; assay: cell-based or functional assay
[2] = target: T1, CRF1R receptor; assay: cell-based or functional assay

Chain of human corticotropin-releasing factor 2a (CRF2a receptor) (human), Q13324 (Q13324 20-411): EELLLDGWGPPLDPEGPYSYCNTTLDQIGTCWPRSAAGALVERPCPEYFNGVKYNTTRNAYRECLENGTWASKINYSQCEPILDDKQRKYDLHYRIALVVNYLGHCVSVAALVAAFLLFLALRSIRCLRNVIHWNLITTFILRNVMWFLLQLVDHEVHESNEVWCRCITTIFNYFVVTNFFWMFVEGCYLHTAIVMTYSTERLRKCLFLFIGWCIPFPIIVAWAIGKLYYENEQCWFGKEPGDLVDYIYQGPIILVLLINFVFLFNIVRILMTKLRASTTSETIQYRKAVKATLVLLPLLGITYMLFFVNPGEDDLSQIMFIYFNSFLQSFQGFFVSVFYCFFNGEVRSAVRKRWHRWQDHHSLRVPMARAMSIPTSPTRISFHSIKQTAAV

EC50 [nM] (cAMP) [1] | Emax (% I) [2] [%] | EC50 [2] [nM] | Binder
0.17 | 20 | – | Pentanoyl-VLSLD[dV]PIKLK([γGlu-C18 diacid])KILLEQEKQKKQREQAETN[Aib]QILAQV-NH2 (SMILES CCCCC(=O)N[C@H](C(=O)N[C@@H](CC(C)C)C(=O)N[C@@H](CO)C(=O)N[C@@H](CC(C)C)C(=O)N[C@@H](CC(=O)O)C(=O)N[C@@H](C(=O)N1CCC[C@H]1C(=O)N[C@H](C(=O)N[C@@H](CCCCN)C(=O)N[C@@H](CC(C)C)C(=O)N[C@@H](CCCCNC(=O)CC[C@H](NC(=O)CCCCCCCCCCCCCCCCC(=O)O)C(=O)O)C(=O)N[C@@H](CCCCN)C(=O)N[C@H](C(=O)N[C@@H](CC(C)C)C(=O)N[C@@H](CC(C)C)C(=O)N[C@@H](CCC(=O)O)C(=O)N[C@@H](CCC(N)=O)C(=O)N[C@@H](CCC(=O)O)C(=O)N[C@@H](CCCCN)C(=O)N[C@@H](CCC(N)=O)C(=O)N[C@@H](CCCCN)C(=O)N[C@@H](CCCCN)C(=O)N[C@@H](CCC(N)=O)C(=O)N[C@@H](CCCNC(=N)N)C(=O)N[C@@H](CCC(=O)O)C(=O)N[C@@H](CCC(N)=O)C(=O)N[C@@H](C)C(=O)N[C@@H](CCC(=O)O)C(=O)N[C@H](C(=O)N[C@@H](CC(N)=O)C(=O)NC(C)(C)C(=O)N[C@@H](CCC(N)=O)C(=O)N[C@H](C(=O)N[C@@H](CC(C)C)C(=O)N[C@@H](C)C(=O)N[C@@H](CCC(N)=O)C(=O)N[C@H](C(N)=O)C(C)C)[C@@H](C)CC)[C@@H](C)O)[C@@H](C)CC)[C@@H](C)CC)C(C)C)C(C)C) [SEQ ID NO 193]
0.18 | 54 | 92.9 | Ac-IVLSLD[dV]PIGLK([γGlu-C18 diacid])KILLEQEKQKKQREQAETN[Aib]QILAQV-NH2 (SMILES CC[C@H](C)[C@H](NC(C)=O)C(=O)N[C@H](C(=O)N[C@@H](CC(C)C)C(=O)N[C@@H](CO)C(=O)N[C@@H](CC(C)C)C(=O)N[C@@H](CC(=O)O)C(=O)N[C@@H](C(=O)N1CCC[C@H]1C(=O)N[C@H](C(=O)NCC(=O)N[C@@H](CC(C)C)C(=O)N[C@@H](CCCCNC(=O)CC[C@H](NC(=O)CCCCCCCCCCCCCCCCC(=O)O)C(=O)O)C(=O)N[C@@H](CCCCN)C(=O)N[C@H](C(=O)N[C@@H](CC(C)C)C(=O)N[C@@H](CC(C)C)C(=O)N[C@@H](CCC(=O)O)C(=O)N[C@@H](CCC(N)=O)C(=O)N[C@@H](CCC(=O)O)C(=O)N[C@@H](CCCCN)C(=O)N[C@@H](CCC(N)=O)C(=O)N[C@@H](CCCCN)C(=O)N[C@@H](CCCCN)C(=O)N[C@@H](CCC(N)=O)C(=O)N[C@@H](CCCNC(=N)N)C(=O)N[C@@H](CCC(=O)O)C(=O)N[C@@H](CCC(N)=O)C(=O)N[C@@H](C)C(=O)N[C@@H](CCC(=O)O)C(=O)N[C@H](C(=O)N[C@@H](CC(N)=O)C(=O)NC(C)(C)C(=O)N[C@@H](CCC(N)=O)C(=O)N[C@H](C(=O)N[C@@H](CC(C)C)C(=O)N[C@@H](C)C(=O)N[C@@H](CCC(N)=O)C(=O)N[C@H](C(N)=O)C(C)C)[C@@H](C)CC)[C@@H](C)O)[C@@H](C)CC)[C@@H](C)CC)C(C)C)C(C)C) [SEQ ID NO 191]

Second part, the binder before the results:

Binder | EC50 [nM] (cAMP) [1] | Emax (% I) [2] [%] | EC50 [2] [nM]
Ac-IVLSLD[dV]PIKLK([γGlu-C18 diacid])KILLEQEKQK[Aib]QREQAETN[Aib]QILAQV-NH2 (SMILES CC[C@H](C)[C@H](NC(C)=O)C(=O)N[C@H](C(=O)N[C@@H](CC(C)C)C(=O)N[C@@H](CO)C(=O)N[C@@H](CC(C)C)C(=O)N[C@@H](CC(=O)O)C(=O)N[C@@H](C(=O)N1CCC[C@H]1C(=O)N[C@H](C(=O)N[C@@H](CCCCN)C(=O)N[C@@H](CC(C)C)C(=O)N[C@@H](CCCCNC(=O)CC[C@H](NC(=O)CCCCCCCCCCCCCCCCC(=O)O)C(=O)O)C(=O)N[C@@H](CCCCN)C(=O)N[C@H](C(=O)N[C@@H](CC(C)C)C(=O)N[C@@H](CC(C)C)C(=O)N[C@@H](CCC(=O)O)C(=O)N[C@@H](CCC(N)=O)C(=O)N[C@@H](CCC(=O)O)C(=O)N[C@@H](CCCCN)C(=O)N[C@@H](CCC(N)=O)C(=O)N[C@@H](CCCCN)C(=O)NC(C)(C)C(=O)N[C@@H](CCC(N)=O)C(=O)N[C@@H](CCCNC(=N)N)C(=O)N[C@@H](CCC(=O)O)C(=O)N[C@@H](CCC(N)=O)C(=O)N[C@@H](C)C(=O)N[C@@H](CCC(=O)O)C(=O)N[C@H](C(=O)N[C@@H](CC(N)=O)C(=O)NC(C)(C)C(=O)N[C@@H](CCC(N)=O)C(=O)N[C@H](C(=O)N[C@@H](CC(C)C)C(=O)N[C@@H](C)C(=O)N[C@@H](CCC(N)=O)C(=O)N[C@H](C(N)=O)C(C)C)[C@@H](C)CC)[C@@H](C)O)[C@@H](C)CC)[C@@H](C)CC)C(C)C)C(C)C) [SEQ ID NO 190] | 0.3 | 9 | –
[NMeI]VLSLD[dV]PIGLK([γGlu-C18 diacid])KILLEQEKQKKQREQAETN[Aib]QILAQV-NH2 (N-terminus assumed; SMILES CC[C@H](C)[C@H](NC)C(=O)N[C@H](C(=O)N[C@@H](CC(C)C)C(=O)N[C@@H](CO)C(=O)N[C@@H](CC(C)C)C(=O)N[C@@H](CC(=O)O)C(=O)N[C@@H](C(=O)N1CCC[C@H]1C(=O)N[C@H](C(=O)NCC(=O)N[C@@H](CC(C)C)C(=O)N[C@@H](CCCCNC(=O)CC[C@H](NC(=O)CCCCCCCCCCCCCCCCC(=O)O)C(=O)O)C(=O)N[C@@H](CCCCN)C(=O)N[C@H](C(=O)N[C@@H](CC(C)C)C(=O)N[C@@H](CC(C)C)C(=O)N[C@@H](CCC(=O)O)C(=O)N[C@@H](CCC(N)=O)C(=O)N[C@@H](CCC(=O)O)C(=O)N[C@@H](CCCCN)C(=O)N[C@@H](CCC(N)=O)C(=O)N[C@@H](CCCCN)C(=O)N[C@@H](CCCCN)C(=O)N[C@@H](CCC(N)=O)C(=O)N[C@@H](CCCNC(=N)N)C(=O)N[C@@H](CCC(=O)O)C(=O)N[C@@H](CCC(N)=O)C(=O)N[C@@H](C)C(=O)N[C@@H](CCC(=O)O)C(=O)N[C@H](C(=O)N[C@@H](CC(N)=O)C(=O)NC(C)(C)C(=O)N[C@@H](CCC(N)=O)C(=O)N[C@H](C(=O)N[C@@H](CC(C)C)C(=O)N[C@@H](C)C(=O)N[C@@H](CCC(N)=O)C(=O)N[C@H](C(N)=O)C(C)C)[C@@H](C)CC)[C@@H](C)O)[C@@H](C)CC)[C@@H](C)CC)C(C)C)C(C)C) [SEQ ID NO 192] | 0.11 | 19 | –
Isovaleryl-VLSLD[dV]PIKLK([γGlu-C16 diacid])QILLKQERQKKQREQAEKNKQILEQV-NH2 (SMILES CC[C@H](C)[C@H](NC(=O)[C@H](CCC(N)=O)NC(=O)[C@H](CCCCNC(=O)CC[C@H](NC(=O)CCCCCCCCCCCCCCC(=O)O)C(=O)O)NC(=O)[C@H](CC(C)C)NC(=O)[C@H](CCCCN)NC(=O)[C@@H](NC(=O)[C@@H]1CCCN1C(=O)[C@H](NC(=O)[C@H](CC(=O)O)NC(=O)[C@H](CC(C)C)NC(=O)[C@H](CO)NC(=O)[C@H](CC(C)C)NC(=O)[C@@H](NC(=O)CC(C)C)C(C)C)C(C)C)[C@@H](C)CC)C(=O)N[C@@H](CC(C)C)C(=O)N[C@@H](CC(C)C)C(=O)N[C@@H](CCCCN)C(=O)N[C@@H](CCC(N)=O)C(=O)N[C@@H](CCC(=O)O)C(=O)N[C@@H](CCCNC(=N)N)C(=O)N[C@@H](CCC(N)=O)C(=O)N[C@@H](CCCCN)C(=O)N[C@@H](CCCCN)C(=O)N[C@@H](CCC(N)=O)C(=O)N[C@@H](CCCNC(=N)N)C(=O)N[C@@H](CCC(=O)O)C(=O)N[C@@H](CCC(N)=O)C(=O)N[C@@H](C)C(=O)N[C@@H](CCC(=O)O)C(=O)N[C@@H](CCCCN)C(=O)N[C@@H](CC(N)=O)C(=O)N[C@@H](CCCCN)C(=O)N[C@@H](CCC(N)=O)C(=O)N[C@H](C(=O)N[C@@H](CC(C)C)C(=O)N[C@@H](CCC(=O)O)C(=O)N[C@@H](CCC(N)=O)C(=O)N[C@H](C(N)=O)C(C)C)[C@@H](C)CC) [SEQ ID NO 9] | 0.16 | 77 | 28.2
Ac-IVLSLD[dV]PIKLK([γGlu-C18 diacid])KILLEQEKQKAQREQAETN[Aib]QILAQV-NH2 (SMILES CC[C@H](C)[C@H](NC(C)=O)C(=O)N[C@H](C(=O)N[C@@H](CC(C)C)C(=O)N[C@@H](CO)C(=O)N[C@@H](CC(C)C)C(=O)N[C@@H](CC(=O)O)C(=O)N[C@@H](C(=O)N1CCC[C@H]1C(=O)N[C@H](C(=O)N[C@@H](CCCCN)C(=O)N[C@@H](CC(C)C)C(=O)N[C@@H](CCCCNC(=O)CC[C@H](NC(=O)CCCCCCCCCCCCCCCCC(=O)O)C(=O)O)C(=O)N[C@@H](CCCCN)C(=O)N[C@H](C(=O)N[C@@H](CC(C)C)C(=O)N[C@@H](CC(C)C)C(=O)N[C@@H](CCC(=O)O)C(=O)N[C@@H](CCC(N)=O)C(=O)N[C@@H](CCC(=O)O)C(=O)N[C@@H](CCCCN)C(=O)N[C@@H](CCC(N)=O)C(=O)N[C@@H](CCCCN)C(=O)N[C@@H](C)C(=O)N[C@@H](CCC(N)=O)C(=O)N[C@@H](CCCNC(=N)N)C(=O)N[C@@H](CCC(=O)O)C(=O)N[C@@H](CCC(N)=O)C(=O)N[C@@H](C)C(=O)N[C@@H](CCC(=O)O)C(=O)N[C@H](C(=O)N[C@@H](CC(N)=O)C(=O)NC(C)(C)C(=O)N[C@@H](CCC(N)=O)C(=O)N[C@H](C(=O)N[C@@H](CC(C)C)C(=O)N[C@@H](C)C(=O)N[C@@H](CCC(N)=O)C(=O)N[C@H](C(N)=O)C(C)C)[C@@H](C)CC)[C@@H](C)O)[C@@H](C)CC)[C@@H](C)CC)C(C)C)C(C)C) [SEQ ID NO 189] | 0.29 | 9 | –
